Values of other authors, collected in PMC8469970.

Molecular target: Galectin-1 (Homo sapiens) (UniProt P09382)

Galectin-1 (from UniProt P09382)
Kd: 7 µM
